Reference: patent US20130029358A1, “IMMUNODOMINANT MHC DR52B RESTRICTED NY-ESO-1 EPITOPES, MHC CLASS II MONOMERS AND MULTIMERS, AND USES THEREOF” (LUDWIG INSTITUTE FOR CANCER RESEARCH LTD., priority 2010, published 2013)

Columns and labels:
DR52b = target: T1, DR52b (Homo sapiens, UniProt P01903+P79483); experiment: DR52b competition binding assay with biotin-labeled HA306-318 peptide; conditions: relative to untagged peptide
T1 construct: made in house; host or cells: D.Mel-2 (Drosophila) cells, pMT/BiP/V5-His A vector, secreted, purified on L243 anti-HLA-DR column
Method: (§1) FIG. 16. DR52b binding capacity of His-tagged and untagged ESO peptides and recognition by specific clones. (A) The capacity of His-tagged and untagged ESO peptides to bind to DR52b was assessed in a competition assay with a biotin-labeled HA-derived peptide. ESO and control peptides were incubated overnight at 37° C., at the indicated concentrations, with recombinant empty DR52b protein (5 μg) and biotin-labeled HA306-318 peptide (0.2 μM). The quantity of DR52b molecules containing the biotin-labeled peptide in each test-point was assessed by ELISA using anti-HLA-DR (clone L243) coated plates and alkaline phosphatase-labeled streptavidin. (B) ESO specific clones were incubated with DR52b^+ EBV-B cells and ESO peptides, at the indicated concentrations, and IFN-γ was measured by ELISA in 24 hrs culture supernatants. Results are shown for one clone representative of 3 clones tested.
Because our new approach involves the addition of a His-tag to the ESO peptides, it was important to address the effect of this modification on peptide binding to class II molecules and recognition by specific CD4^+ T cells. With this aim we assessed the relative efficiency of untagged and His-tagged ESO peptides to bind to DR52b using a previously described competition assay (13).

ESO specific clones = experiment: Recognition of His-tagged and untagged ESO peptides by specific clones with DR52b+ EBV-B cells (IFN-γ ELISA); format: cell-based, human; conditions: 24 hrs
Method: as §1, with “tested. DR52b^+ ESO-specific CD4^+ T cell clones or polyclonal cultures were stimulated in the absence or presence of ESO peptides (2 μM) or PMA (100 ng/ml) and ionomycin (1 μg/ml), as indicated, and cytokine production was assessed in a standard 4 hrs intracellular cytokine staining assay using mAb specific for IFN-γ, TNF-α, IL-2, IL-4, IL-10 (BD Biosciences) and IL-17 (eBiosciences), as previously described (9, 34). […]” for “tested.”

Substance	effect of His-tag on peptide binding to DR52b (DR52b)	recognition by specific CD4+ T cells relative to untagged peptide (ESO specific clones)
His-tagged ESO119-143: ESO119-143 extended at the N-terminus by 6 His residues and a linker (Ser-Gly-Ser-Gly)	did not significantly modify	–
His-tagged ESO123-137: ESO123-137 extended at the N-terminus by 6 His residues and a linker (Ser-Gly-Ser-Gly)	did not significantly modify	moderately improved efficiency
